Data from patent US20080199467A1.

Biological target: Fc receptor on THP-1 cells
Assay: cell-based or functional assay

Chain of RAGE fusion protein TTP-4000 (Fc fusion) (chain): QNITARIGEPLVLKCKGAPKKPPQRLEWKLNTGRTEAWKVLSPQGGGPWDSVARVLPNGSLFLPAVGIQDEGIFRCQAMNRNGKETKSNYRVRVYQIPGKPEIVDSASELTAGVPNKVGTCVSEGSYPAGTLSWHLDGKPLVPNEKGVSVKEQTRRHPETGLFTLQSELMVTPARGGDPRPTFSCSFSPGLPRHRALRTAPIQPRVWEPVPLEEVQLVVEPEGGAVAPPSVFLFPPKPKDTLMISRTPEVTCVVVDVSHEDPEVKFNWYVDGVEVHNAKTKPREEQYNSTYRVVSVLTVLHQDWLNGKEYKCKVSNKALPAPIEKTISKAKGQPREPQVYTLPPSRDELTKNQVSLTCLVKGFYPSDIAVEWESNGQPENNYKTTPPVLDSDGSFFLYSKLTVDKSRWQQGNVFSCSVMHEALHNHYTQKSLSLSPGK

Substance: RAGE fusion protein TTP-4000 (Fc fusion)
- TNF-α secretion from THP-1 cells on wells coated with 10 ug/well heat aggregated protein: < 2 ng/well

Substance: human IgG1 (heat aggregated, coated on the well) (antibody)
- TNF-α secretion from THP-1 cells on wells coated with 10 ug/well heat aggregated protein: > 40 ng/well
